# Source: patent US20160272683A1 (Novo Nordisk, published 2016)
# Numbered stars: 1 amine (or outer) side, 2 acyl side, 3 side chain; on linkers, the order of the positions; unused ones are H or OH. * marks the point of attachment. C20 diacid = O=C(O)CCCCCCCCCCCCCCCCCCC(=O)*; C18 diacid = O=C(O)CCCCCCCCCCCCCCCCC(=O)*; γGlu = O=C(O)[C@H](CCC(=O)[*:2])N[*:1]
# T1: human amylin 3(a) receptor (human calcitonin receptor co-expressed with RAMP-3) on BHK570/CRE-luc cells (human, UniProt P30988 25-474; O60896 24-148)
# T1 sequence (looked up) 1: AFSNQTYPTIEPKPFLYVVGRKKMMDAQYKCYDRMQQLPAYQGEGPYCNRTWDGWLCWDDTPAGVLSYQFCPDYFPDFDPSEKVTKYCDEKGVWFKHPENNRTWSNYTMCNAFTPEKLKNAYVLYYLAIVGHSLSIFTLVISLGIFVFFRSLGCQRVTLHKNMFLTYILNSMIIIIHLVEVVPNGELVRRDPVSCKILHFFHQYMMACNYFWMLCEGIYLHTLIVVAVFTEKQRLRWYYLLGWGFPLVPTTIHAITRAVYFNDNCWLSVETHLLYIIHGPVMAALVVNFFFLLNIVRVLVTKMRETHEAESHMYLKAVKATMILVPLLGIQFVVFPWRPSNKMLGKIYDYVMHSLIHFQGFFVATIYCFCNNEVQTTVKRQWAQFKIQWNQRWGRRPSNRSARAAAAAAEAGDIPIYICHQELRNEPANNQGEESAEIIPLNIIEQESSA
# T1 sequence (looked up) 2: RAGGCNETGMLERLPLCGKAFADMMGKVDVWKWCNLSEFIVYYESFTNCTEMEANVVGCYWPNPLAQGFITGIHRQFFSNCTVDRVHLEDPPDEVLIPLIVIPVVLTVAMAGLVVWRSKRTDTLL
# T2: human calcitonin receptor on BHK570/CRE-luc cells (human, UniProt P30988 25-474)
# T2 sequence (looked up): T1 sequence (looked up) 1
# B1: [N-terminal(C20 diacid-gGlu), des1, 21S, 23Y, 30S, 31G]mimylin (peptide)
# peptide: {C20 diacid-γGlu}-ASELSTAALGRLSAELHELSTYPRTETGSGSP-NH2
# SMILES: CC(C)C[C@H](NC(=O)[C@H](C)NC(=O)[C@H](C)NC(=O)[C@@H](NC(=O)[C@H](CO)NC(=O)[C@H](CC(C)C)NC(=O)[C@H](CCC(=O)O)NC(=O)[C@H](CO)NC(=O)[C@H](C)NC(=O)CC[C@H](NC(=O)CCCCCCCCCCCCCCCCCCC(=O)O)C(=O)O)[C@@H](C)O)C(=O)NCC(=O)N[C@@H](CCCNC(=N)N)C(=O)N[C@@H](CC(C)C)C(=O)N[C@@H](CO)C(=O)N[C@@H](C)C(=O)N[C@@H](CCC(=O)O)C(=O)N[C@@H](CC(C)C)C(=O)N[C@@H](Cc1c[nH]cn1)C(=O)N[C@@H](CCC(=O)O)C(=O)N[C@@H](CC(C)C)C(=O)N[C@@H](CO)C(=O)N[C@H](C(=O)N[C@@H](Cc1ccc(O)cc1)C(=O)N1CCC[C@H]1C(=O)N[C@@H](CCCNC(=N)N)C(=O)N[C@H](C(=O)N[C@@H](CCC(=O)O)C(=O)N[C@H](C(=O)NCC(=O)N[C@@H](CO)C(=O)NCC(=O)N[C@@H](CO)C(=O)N1CCC[C@H]1C(N)=O)[C@@H](C)O)[C@@H](C)O)[C@@H](C)O
# B2: [N-terminal(C20 diacid-gGlu), -1E, 1A, 23Y, 30S, 31G]mimylin (peptide)
# peptide: {C20 diacid-γGlu}-EAASELSTAALGRLSAELHELATYPRTETGSGSP-NH2
# SMILES: CC(C)C[C@H](NC(=O)[C@H](C)NC(=O)[C@H](C)NC(=O)[C@@H](NC(=O)[C@H](CO)NC(=O)[C@H](CC(C)C)NC(=O)[C@H](CCC(=O)O)NC(=O)[C@H](CO)NC(=O)[C@H](C)NC(=O)[C@H](C)NC(=O)[C@H](CCC(=O)O)NC(=O)CC[C@H](NC(=O)CCCCCCCCCCCCCCCCCCC(=O)O)C(=O)O)[C@@H](C)O)C(=O)NCC(=O)N[C@@H](CCCNC(=N)N)C(=O)N[C@@H](CC(C)C)C(=O)N[C@@H](CO)C(=O)N[C@@H](C)C(=O)N[C@@H](CCC(=O)O)C(=O)N[C@@H](CC(C)C)C(=O)N[C@@H](Cc1c[nH]cn1)C(=O)N[C@@H](CCC(=O)O)C(=O)N[C@@H](CC(C)C)C(=O)N[C@@H](C)C(=O)N[C@H](C(=O)N[C@@H](Cc1ccc(O)cc1)C(=O)N1CCC[C@H]1C(=O)N[C@@H](CCCNC(=N)N)C(=O)N[C@H](C(=O)N[C@@H](CCC(=O)O)C(=O)N[C@H](C(=O)NCC(=O)N[C@@H](CO)C(=O)NCC(=O)N[C@@H](CO)C(=O)N1CCC[C@H]1C(N)=O)[C@@H](C)O)[C@@H](C)O)[C@@H](C)O
# B3: [N-terminal(C20 diacid-gGlu), des1, 23Y, 30S, 31G, 33Y]mimylin (peptide)
# peptide: {C20 diacid-γGlu}-ASELSTAALGRLSAELHELATYPRTETGSGSY-NH2
# SMILES: CC(C)C[C@H](NC(=O)[C@H](C)NC(=O)[C@H](C)NC(=O)[C@@H](NC(=O)[C@H](CO)NC(=O)[C@H](CC(C)C)NC(=O)[C@H](CCC(=O)O)NC(=O)[C@H](CO)NC(=O)[C@H](C)NC(=O)CC[C@H](NC(=O)CCCCCCCCCCCCCCCCCCC(=O)O)C(=O)O)[C@@H](C)O)C(=O)NCC(=O)N[C@@H](CCCNC(=N)N)C(=O)N[C@@H](CC(C)C)C(=O)N[C@@H](CO)C(=O)N[C@@H](C)C(=O)N[C@@H](CCC(=O)O)C(=O)N[C@@H](CC(C)C)C(=O)N[C@@H](Cc1c[nH]cn1)C(=O)N[C@@H](CCC(=O)O)C(=O)N[C@@H](CC(C)C)C(=O)N[C@@H](C)C(=O)N[C@H](C(=O)N[C@@H](Cc1ccc(O)cc1)C(=O)N1CCC[C@H]1C(=O)N[C@@H](CCCNC(=N)N)C(=O)N[C@H](C(=O)N[C@@H](CCC(=O)O)C(=O)N[C@H](C(=O)NCC(=O)N[C@@H](CO)C(=O)NCC(=O)N[C@@H](CO)C(=O)N[C@@H](Cc1ccc(O)cc1)C(N)=O)[C@@H](C)O)[C@@H](C)O)[C@@H](C)O
# B4: [N-terminal(C20 diacid-gGlu), des1, 23Y, 30S, 31G, 34G, C-terminal(-)]mimylin (peptide)
# peptide: {C20 diacid-γGlu}-ASELSTAALGRLSAELHELATYPRTETGSGSPG-OH
# SMILES: CC(C)C[C@H](NC(=O)[C@H](C)NC(=O)[C@H](C)NC(=O)[C@@H](NC(=O)[C@H](CO)NC(=O)[C@H](CC(C)C)NC(=O)[C@H](CCC(=O)O)NC(=O)[C@H](CO)NC(=O)[C@H](C)NC(=O)CC[C@H](NC(=O)CCCCCCCCCCCCCCCCCCC(=O)O)C(=O)O)[C@@H](C)O)C(=O)NCC(=O)N[C@@H](CCCNC(=N)N)C(=O)N[C@@H](CC(C)C)C(=O)N[C@@H](CO)C(=O)N[C@@H](C)C(=O)N[C@@H](CCC(=O)O)C(=O)N[C@@H](CC(C)C)C(=O)N[C@@H](Cc1c[nH]cn1)C(=O)N[C@@H](CCC(=O)O)C(=O)N[C@@H](CC(C)C)C(=O)N[C@@H](C)C(=O)N[C@H](C(=O)N[C@@H](Cc1ccc(O)cc1)C(=O)N1CCC[C@H]1C(=O)N[C@@H](CCCNC(=N)N)C(=O)N[C@H](C(=O)N[C@@H](CCC(=O)O)C(=O)N[C@H](C(=O)NCC(=O)N[C@@H](CO)C(=O)NCC(=O)N[C@@H](CO)C(=O)N1CCC[C@H]1C(=O)NCC(=O)O)[C@@H](C)O)[C@@H](C)O)[C@@H](C)O
# B5: [N-terminal(C20 diacid-gGlu), des1, 23Y, 30S, 31G, 32A]mimylin (peptide)
# peptide: {C20 diacid-γGlu}-ASELSTAALGRLSAELHELATYPRTETGSGAP-NH2
# SMILES: CC(C)C[C@H](NC(=O)[C@H](C)NC(=O)[C@H](C)NC(=O)[C@@H](NC(=O)[C@H](CO)NC(=O)[C@H](CC(C)C)NC(=O)[C@H](CCC(=O)O)NC(=O)[C@H](CO)NC(=O)[C@H](C)NC(=O)CC[C@H](NC(=O)CCCCCCCCCCCCCCCCCCC(=O)O)C(=O)O)[C@@H](C)O)C(=O)NCC(=O)N[C@@H](CCCNC(=N)N)C(=O)N[C@@H](CC(C)C)C(=O)N[C@@H](CO)C(=O)N[C@@H](C)C(=O)N[C@@H](CCC(=O)O)C(=O)N[C@@H](CC(C)C)C(=O)N[C@@H](Cc1c[nH]cn1)C(=O)N[C@@H](CCC(=O)O)C(=O)N[C@@H](CC(C)C)C(=O)N[C@@H](C)C(=O)N[C@H](C(=O)N[C@@H](Cc1ccc(O)cc1)C(=O)N1CCC[C@H]1C(=O)N[C@@H](CCCNC(=N)N)C(=O)N[C@H](C(=O)N[C@@H](CCC(=O)O)C(=O)N[C@H](C(=O)NCC(=O)N[C@@H](CO)C(=O)NCC(=O)N[C@@H](C)C(=O)N1CCC[C@H]1C(N)=O)[C@@H](C)O)[C@@H](C)O)[C@@H](C)O
# B6: [N-terminal(C20 diacid-gGlu), des1, 12H, 25H, 30S, 31G]mimylin (peptide)
# peptide: {C20 diacid-γGlu}-ASELSTAALGHLSAELHELATLPHTETGSGSP-NH2
# SMILES: CC(C)C[C@H](NC(=O)[C@H](C)NC(=O)[C@H](C)NC(=O)[C@@H](NC(=O)[C@H](CO)NC(=O)[C@H](CC(C)C)NC(=O)[C@H](CCC(=O)O)NC(=O)[C@H](CO)NC(=O)[C@H](C)NC(=O)CC[C@H](NC(=O)CCCCCCCCCCCCCCCCCCC(=O)O)C(=O)O)[C@@H](C)O)C(=O)NCC(=O)N[C@@H](Cc1c[nH]cn1)C(=O)N[C@@H](CC(C)C)C(=O)N[C@@H](CO)C(=O)N[C@@H](C)C(=O)N[C@@H](CCC(=O)O)C(=O)N[C@@H](CC(C)C)C(=O)N[C@@H](Cc1c[nH]cn1)C(=O)N[C@@H](CCC(=O)O)C(=O)N[C@@H](CC(C)C)C(=O)N[C@@H](C)C(=O)N[C@H](C(=O)N[C@@H](CC(C)C)C(=O)N1CCC[C@H]1C(=O)N[C@@H](Cc1c[nH]cn1)C(=O)N[C@H](C(=O)N[C@@H](CCC(=O)O)C(=O)N[C@H](C(=O)NCC(=O)N[C@@H](CO)C(=O)NCC(=O)N[C@@H](CO)C(=O)N1CCC[C@H]1C(N)=O)[C@@H](C)O)[C@@H](C)O)[C@@H](C)O
# B7: [N-terminal(C18 diacid-gGlu), des1, 6T, 9V, 30S, 31G]mimylin (peptide)
# peptide: {C18 diacid-γGlu}-ASELTTAVLGRLSAELHELATLPRTETGSGSP-NH2
# SMILES: CC(C)C[C@H](NC(=O)[C@H](CCC(=O)O)NC(=O)[C@H](Cc1c[nH]cn1)NC(=O)[C@H](CC(C)C)NC(=O)[C@H](CCC(=O)O)NC(=O)[C@H](C)NC(=O)[C@H](CO)NC(=O)[C@H](CC(C)C)NC(=O)[C@H](CCCNC(=N)N)NC(=O)CNC(=O)[C@H](CC(C)C)NC(=O)[C@@H](NC(=O)[C@H](C)NC(=O)[C@@H](NC(=O)[C@@H](NC(=O)[C@H](CC(C)C)NC(=O)[C@H](CCC(=O)O)NC(=O)[C@H](CO)NC(=O)[C@H](C)NC(=O)CC[C@H](NC(=O)CCCCCCCCCCCCCCCCC(=O)O)C(=O)O)[C@@H](C)O)[C@@H](C)O)C(C)C)C(=O)N[C@@H](C)C(=O)N[C@H](C(=O)N[C@@H](CC(C)C)C(=O)N1CCC[C@H]1C(=O)N[C@@H](CCCNC(=N)N)C(=O)N[C@H](C(=O)N[C@@H](CCC(=O)O)C(=O)N[C@H](C(=O)NCC(=O)N[C@@H](CO)C(=O)NCC(=O)N[C@@H](CO)C(=O)N1CCC[C@H]1C(N)=O)[C@@H](C)O)[C@@H](C)O)[C@@H](C)O
# Target: T1, human amylin 3(a) receptor (human …)
# Assay: cell-based or functional assay
row,Binder,"hAmylin-R funct. EC50 (pM), tested with HSA [pM]"
1,B1,58
2,B2,181
3,B3,93
4,B4,210
5,"{C20 diacid-γGlu}-ASELSTAALGRLSAELHELATYPRTETGSGSY-OH [[N-terminal(C20 diacid-gGlu), des1, 23Y, 30S, 31G, 33Y, C-terminal(-)]mimylin]",976
6,"{C18 diacid-γGlu}-ASEVSTAVLGRLSAELHELATLPRTETGSGSP-NH2 [[N-terminal(C18 diacid-gGlu), des1, 5V, 9V, 30S, 31G]mimylin]",356
7,B5,100
8,B6,440
9,B7,19

# Target: T2, human calcitonin receptor on …
# Assay: cell-based or functional assay
row,Binder,"hCTR funct. EC50 (pM), tested with HSA [pM]"
1,B1,30
2,B2,113
3,B3,71
4,B4,50
5,"{C20 diacid-γGlu}-ASELSTAALGRLSAELHELATYPRTETGSGSY-OH [[N-terminal(C20 diacid-gGlu), des1, 23Y, 30S, 31G, 33Y, C-terminal(-)]mimylin]",418
6,"{C18 diacid-γGlu}-ASEVSTAVLGRLSAELHELATLPRTETGSGSP-NH2 [[N-terminal(C18 diacid-gGlu), des1, 5V, 9V, 30S, 31G]mimylin]",87
7,B5,37
8,B6,123
9,B7,9
